Data on 8 molecules can be found in publication PMC2275666 (The EMBO Journal, 2008).

Sequences and labels used below:
B3: 6H–hTFIIEα wild type (full-length hTFIIEα) (natural protein)
chain: MADPDVLTEVPAALKRLAKYVIRGFYGIEHALALDILIRNSCVKEEDMLELLKFDRKQLRSVLNNLKGDKFIKCRMRVETAADGKTTRHNYYFINYRTLVNVVKYKLDHMRRRIETDERDSTNRASFKCPVCSSTFTDLEANQLFDPMTGTFRCTFCHTEVEEDESAMPKKDARTLLARFNEQIEPIYALLRETEDVNLAYEILEPEPTEIPALKQSKDHAATTAGAASLAGGHHREAWATKGPSYEDLYTQNVVINMDDQEDLHRASLEGKSAKERPIWLRESTVQGAYGSEDMKEGGIDMDAFQEREEGHAGPDDNEEVMRALLIHEKKTSSAMAGSVGAAAPVTAANGSDSESETSESDDDSPPRPAAVAVHKREEDEEEDDEFEEVADDPIVMVAGRPFSYSEVSQRPELVAQMTPEEKEAYIAMGQRMFEDLFE

In assay [1] the target is T1, hTFIIH p62 PH-D (pleckstrin homology domain of the p62 subunit of human TFIIH) (human, UniProt P32780 1-108).
T1 sequence: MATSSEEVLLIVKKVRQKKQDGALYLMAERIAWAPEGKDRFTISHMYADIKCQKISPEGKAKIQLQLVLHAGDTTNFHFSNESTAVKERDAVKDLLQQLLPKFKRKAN
Nature of the assay: NMR titration.

Assay [2] addresses full-length GST–p62(1−548) (human, UniProt P32780 1-548). Nature of the assay: pull-down.
The target of assay [3] is B3. Nature of the assay: pull-down.
For assay [4], the target named is B3. Nature of the assay: pull-down. This is another data set of the same source.

“And” between values parts separate entries of the source, which are not always exact repeats. Identical values can stand only once. Like-named read-outs stand apart in the source and are kept apart here.

A word on the Kd: it is the constant that tells how readily two partners part at equilibrium. Low readings indicate tighter binding, high ones weaker binding.

B1: hTFIIEα AC-D (C-terminal acidic domain of the human TFIIEα subunit, residues 378–439) (domain or fragment)
chain: EEDEEEDDEFEEVADDPIVMVAGRPFSYSEVSQRPELVAQMTPEEKEAYIAMGQRMFEDLFE
For the molecule B1, in assay [1], the Kd is 0.376 µM and 0.237 µM.

B2: hTFIIEα(351−439) (longer construct with STDE and acidic regions, NMR titration) (domain or fragment)
chain: GSDSESETSESDDDSPPRPAAVAVHKREEDEEEDDEFEEVADDPIVMVAGRPFSYSEVSQRPELVAQMTPEEKEAYIAMGQRMFEDLFE
Molecule B2 gave a dissociation constant Kd in assay [1] of 0.4 ± 0.043 µM.

On to B3, for which the binding result in assay [2] is “binds”.

B4: GST–p62(1−238) (domain or fragment)
chain: not shown
In the case of B4, the binding result in assay [3] is given as “binds”.

B5: GST–p62(1−108) (GST-tagged p62 PH-D) (domain or fragment)
chain: MATSSEEVLLIVKKVRQKKQDGALYLMAERIAWAPEGKDRFTISHMYADIKCQKISPEGKAKIQLQLVLHAGDTTNFHFSNESTAVKERDAVKDLLQQLLPKFKRKAN
As for B5, in assay [3], the binding result was “binds”.

B6: GST–p62(1−333) (domain or fragment)
chain: not shown
As for B6, the binding result in assay [3] is listed as “binds”.

B7: FLAG-tagged hTFIIH p62 PH-D, wild type (domain or fragment)
chain: MATSSEEVLLIVKKVRQKKQDGALYLMAERIAWAPEGKDRFTISHMYADIKCQKISPEGKAKIQLQLVLHAGDTTNFHFSNESTAVKERDAVKDLLQQLLPKFKRKAN
On to B7, for which, in assay [4], the binding result is “binds”.

EEEDDEFEEVADDP [hTFIIEα AC-D(381−394) peptide (N-terminal tail only)] gave a Kd in assay [1] of 2.12 ± 0.192 µM.
